One molecule from patent US20170056486A1 (IMMATICS BIOTECHNOLOGIES, published 2017) can be followed below.

In the assay the target is T1, HLA-A*02:01 (human).
T1 construct: MHC class I molecule without the peptide
In words: biotinylated peptide-MHC complex used as negative control in T-cell priming. Here is the method: 800.000 beads/200 μl were coated in 96-well plates in the presence of 4×12.5 ng different biotin-pMHC, washed and 600 ng biotin anti-CD28 were added subsequently in a volume of 200 μl. Stimulations were initiated in 96-well plates by co-incubating 1×10⁶ CD8+ T cells with 2×10⁵ washed coated beads in 200 μl TCM supplemented with 5 ng/ml IL-12 (PromoCell) for 3 days at 37° C. Half of the medium was then exchanged by fresh TCM supplemented with 80 U/ml IL-2 and incubating was continued for 4 days at 37° C. This stimulation cycle was performed for a total of three times. For the pMHC multimer readout using 8 different pMHC molecules per condition, a two-dimensional combinatorial coding approach was used as previously described (Andersen et al., 2012) with minor modifications encompassing coupling to 5 different fluorochromes. […] For analysis, a BD LSRII SORP cytometer equipped with appropriate lasers and filters was used. Peptide specific cells were calculated as percentage of total CD8+ cells. Evaluation of multimeric analysis was done using the FlowJo software (Tree Star, Oregon, USA). In vitro priming of specific multimer+ CD8+ lymphocytes was detected by comparing to negative control stimulations.

B1: DDX5-001 (YLLPAIVHI from DDX5) (peptide)
peptide: YLLPAIVHI
notes: negative control peptide of the T-cell stimulations; also called 419
In the case of B1, the binding result is on record as “binds”.
